Measured values: the supplement of paper PMC7877785
± gives the uncertainty stated by the source.

Test: self-splicing fitness, log relative to wild type (ln ratio); higher = more splicing; Tetrahymena group I intron in knt gene, E. coli kanamycin selection, DiMSum; sequences stand for … in CUCUCU…GGAGGGAAAAGUUAUCAGGCAUGCACCUGGUAGCUAGUCUUUAAACCAAUAGAUUGCAUCGGUUUAAAAGGCAAGACCGUCAAAUUGCGGGAAAGGGGUCAACAGCCGUUCAGUACCAAGUCUCAGGGGAAACUUUGAGAUGGCCUUGCAAAGGGUAUGGUAAUAAGCUGACGGACAUGGUCCUAACCACGCAGCCAAGUCCUAAGUCAACAGAUCUUCUGUUGAUAUGGAUGCAGUUCACAGACUAAAUGUCGGUCGGGGAAGAUGUAUUCUUCUCAUAAGAUAUAGUCGGACCUCUCCUUAAUGGGAGCUAGCGGAUGAAGUGAUGCAACACUGGAGCCGCUGGGAACUAAUUUGUAUGCGAAAGUAUAUUGAUUAGUUUUGGAGUACUCGUGGUCG
Procedure, shortened: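 A randomised library covering all eight P1ex-region intron nucleotides was built with the intron in the knt kanamycin-resistance gene on pET-22b(+) and held in E. coli BL21(DE3). Cells were grown overnight at 37°C or 30°C on LB agar, with or without 25 μg/mL kanamycin, plus 100 μg/mL carbenicillin, 50 μM IPTG and 0.2% rhamnose, and pooled colonies were amplicon-sequenced on an Illumina HiSeq 2500. DiMSum fitness is the error-weighted combination of wild-type-normalised replicate fold changes, kanamycin versus none.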

Sequence | self-splicing fitness (ln) (30 °C) | self-splicing fitness (ln) (37 °C)
UCUCAGCAAUAUUACGUGGA | -3.7 ± 0.29 | -1.05 ± 0.12
UCUCAGCAAUAUUACGUUAC | – | -1.86 ± 0.36
UCUCAGCAAUAUUACGUUCA | -2.49 ± 0.14 | -1.15 ± 0.14
UCUGAGCAAUAUUACGAAGC | – | -1.48 ± 0.37
UCUGAGCAAUAUUACGAAUC | -3.29 ± 0.25 | -3.03 ± 0.43
UCUGAGCAAUAUUACGAAUG | -2.96 ± 0.26 | -1.66 ± 0.21
UCUGAGCAAUAUUACGAUGG | -1.42 ± 0.16 | -0.717 ± 0.2
UCUGAGCAAUAUUACGAUUU | -2.65 ± 0.22 | -1.31 ± 0.2
UCUGAGCAAUAUUACGCAAA | -2.8 ± 0.33 | -1.27 ± 0.19
UCUGAGCAAUAUUACGCCAA | – | -1.51 ± 0.32
UCUGAGCAAUAUUACGCCAU | – | -2.32 ± 0.31
UCUGAGCAAUAUUACGCCCG | -2.56 ± 0.28 | -2.38 ± 0.49
UCUGAGCAAUAUUACGCCGU | -3.13 ± 0.48 | -1.56 ± 0.36
UCUGAGCAAUAUUACGCGGA | -3.6 ± 0.27 | -2.66 ± 0.21
UCUGAGCAAUAUUACGCUAG | -1.31 ± 0.17 | -1.43 ± 0.19
UCUGAGCAAUAUUACGGCGA | -0.309 ± 0.12 | 0.122 ± 0.18
UCUGAGCAAUAUUACGGGAG | -4.4 ± 0.36 | -2.65 ± 0.29
UCUGAGCAAUAUUACGGGCG | -1.33 ± 0.17 | -2.56 ± 0.22
UCUGAGCAAUAUUACGGGGA | -2.89 ± 0.2 | -1.97 ± 0.19
UCUGAGCAAUAUUACGGGGC | -3.3 ± 0.32 | -2.7 ± 0.36
UCUGAGCAAUAUUACGGUGA | -0.612 ± 0.11 | -0.1 ± 0.13
UCUGAGCAAUAUUACGUCAA | -2.53 ± 0.24 | -2.22 ± 0.27
UCUGAGCAAUAUUACGUCUG | -1.01 ± 0.11 | -1.4 ± 0.14
UCUGAGCAAUAUUACGUGCA | -2.65 ± 0.19 | -1.99 ± 0.22
UCUGAGCAAUAUUACGUUAG | -2.36 ± 0.14 | -1.82 ± 0.17
UCUUAGCAAUAUUACGACCU | -1.75 ± 0.4 | 0.256 ± 0.43

Sequence | self-splicing fitness (ln) (30 °C) | self-splicing fitness (ln) (37 °C)
UCUUAGCAAUAUUACGACUG | -2.53 ± 0.23 | -1.69 ± 0.23
UCUUAGCAAUAUUACGCACU | -2.05 ± 0.33 | -0.732 ± 0.36
UCUUAGCAAUAUUACGCGAU | -3.71 ± 0.33 | -3.67 ± 0.34
UCUUAGCAAUAUUACGCUUG | -2.43 ± 0.24 | -1.89 ± 0.23
UCUUAGCAAUAUUACGGCUU | -3.65 ± 0.41 | -2.63 ± 0.48
UCUUAGCAAUAUUACGGGCA | -0.387 ± 0.14 | -0.119 ± 0.16
UCUUAGCAAUAUUACGGGCU | -4.8 ± 0.46 | -2.26 ± 0.28
UCUUAGCAAUAUUACGGUAU | -4.43 ± 0.39 | -2.85 ± 0.29
UCUUAGCAAUAUUACGGUCU | -4.42 ± 0.42 | -2.67 ± 0.32
UCUUAGCAAUAUUACGUCGA | -0.705 ± 0.13 | -0.434 ± 0.15
UCUUAGCAAUAUUACGUCGG | -0.815 ± 0.21 | -0.0675 ± 0.2
UCUUAGCAAUAUUACGUCUC | -3.09 ± 0.3 | -2.39 ± 0.39
UCUUAGCAAUAUUACGUGGA | -3.14 ± 0.32 | -3.03 ± 0.37
UCUUAGCAAUAUUACGUGGC | – | -1.6 ± 0.42
UCUUAGCAAUAUUACGUUAA | -2.98 ± 0.26 | -2.67 ± 0.38
UCUUAGCAAUAUUACGUUAC | – | -2.83 ± 0.31
UGAAAGCAAUAUUACGAAAG | -2.61 ± 0.15 | -0.866 ± 0.16
UGAAAGCAAUAUUACGACCC | -1.44 ± 0.31 | –
UGAAAGCAAUAUUACGACUC | -2.17 ± 0.2 | -1.88 ± 0.25
UGAAAGCAAUAUUACGAGGA | -3.43 ± 0.24 | -1.81 ± 0.15
UGAAAGCAAUAUUACGAGUC | -3.42 ± 0.28 | -2.28 ± 0.26
UGAAAGCAAUAUUACGAUCA | -0.309 ± 0.084 | -0.381 ± 0.1
UGAAAGCAAUAUUACGCAAC | -3.98 ± 0.29 | -1.69 ± 0.19
UGAAAGCAAUAUUACGCCAU | -3.11 ± 0.3 | -3.23 ± 0.33
UGAAAGCAAUAUUACGCCCA | -0.309 ± 0.11 | 0.296 ± 0.16
UGAAAGCAAUAUUACGCCUU | -0.914 ± 0.2 | -2.01 ± 0.34

Sequence | self-splicing fitness (ln) (30 °C) | self-splicing fitness (ln) (37 °C)
UGAAAGCAAUAUUACGCGCA | -0.0804 ± 0.12 | 0.142 ± 0.15
UGAAAGCAAUAUUACGGGGG | -2.07 ± 0.17 | -2.89 ± 0.26
UGAAAGCAAUAUUACGGGGU | -3.55 ± 0.2 | -2.48 ± 0.18
UGAAAGCAAUAUUACGGUAG | -0.656 ± 0.06 | -0.113 ± 0.088
UGAAAGCAAUAUUACGGUAU | -2.53 ± 0.21 | -0.827 ± 0.16
UGAAAGCAAUAUUACGGUGG | -1.22 ± 0.063 | -1.44 ± 0.093
UGAAAGCAAUAUUACGUACG | -0.177 ± 0.11 | 0.639 ± 0.13
UGAAAGCAAUAUUACGUAGU | -3.96 ± 0.26 | -2.16 ± 0.18
UGAAAGCAAUAUUACGUCAA | -0.68 ± 0.12 | -1.31 ± 0.12
UGAAAGCAAUAUUACGUCAG | -1.78 ± 0.13 | -0.368 ± 0.13
UGAAAGCAAUAUUACGUGUU | -3.21 ± 0.13 | -1.44 ± 0.11
UGACAGCAAUAUUACGAAAG | -3.07 ± 0.25 | -2.15 ± 0.2
UGACAGCAAUAUUACGAACA | -0.232 ± 0.081 | -0.06 ± 0.087
UGACAGCAAUAUUACGACAU | -1.209 ± 0.012 | -0.373 ± 0.032
UGACAGCAAUAUUACGAGAA | – | -2.33 ± 0.29
UGACAGCAAUAUUACGAUGU | -4.14 ± 0.17 | -2.28 ± 0.14
UGACAGCAAUAUUACGAUUC | -3.35 ± 0.17 | -2.09 ± 0.14
UGACAGCAAUAUUACGCCAG | -1.56 ± 0.12 | -0.793 ± 0.14
UGACAGCAAUAUUACGCGUA | -0.95 ± 0.094 | -0.353 ± 0.089
UGACAGCAAUAUUACGCGUG | -0.925 ± 0.066 | 0.0478 ± 0.08
UGACAGCAAUAUUACGCUCG | -1.1 ± 0.11 | -0.143 ± 0.14
UGACAGCAAUAUUACGCUUU | -3.43 ± 0.2 | -2.54 ± 0.26
UGACAGCAAUAUUACGGAAC | -2.81 ± 0.24 | -2.42 ± 0.24
UGACAGCAAUAUUACGGCGA | -0.625 ± 0.085 | -0.382 ± 0.092
UGACAGCAAUAUUACGUAAU | -2.19 ± 0.099 | -0.915 ± 0.15
UGACAGCAAUAUUACGUACC | -1.78 ± 0.12 | -0.302 ± 0.14
